Test results from PMC4005678.

Target: Klf4 ZnF1-3 DNA-binding domain (mouse) (UniProt Q60793)
Test: fluorescence polarization
Conditions: FP: 20 mM Tris-HCl pH 7.5, 150 mM NaCl, 5% (v/v) glycerol, 0.5 mM TCEP, ~22 C, probe 10 nM (WT) or 1 nM (E446A)

Klf4 ZnF1-3 DNA-binding domain (mouse), sequence (Q60793 396-483): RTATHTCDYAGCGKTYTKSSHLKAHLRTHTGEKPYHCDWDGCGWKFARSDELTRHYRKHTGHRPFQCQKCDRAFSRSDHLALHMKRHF

GAGGCGTGGC / TTGCCACGCCTC [Klf4 site 5fC/M]
binding signal (fold weaker than M/M) (5fC at position 5 of strand 1, 5mC at position 7 of strand 2): 3

GAGGCGTGGC / TTGCCACGCCTC [Klf4 site 5hmC/M]
binding signal (fold weaker than M/M) (5hmC at position 5 of strand 1, 5mC at position 7 of strand 2): 2

GAGGCGTGGC / TTGCCACGCCTC [Klf4 site 5caC/M]
binding signal (fold weaker than M/M) (5caC at position 5 of strand 1, 5mC at position 7 of strand 2): 6

GAGGCGTGGC / TTGCCACGCCTC [Klf4 site C/C]
binding signal (fold weaker than M/M): 1.5

GAGGCGTGGC / TTGCCACGCCTC [Klf4 site C/M]
binding signal (fold weaker than M/M) (repeat series, C at position 5 of strand 1, 5mC at position 7 of strand 2): 1.5
binding signal (fold Kd vs M/M) (text: difference only ~40%, C at position 5 of strand 1, 5mC at position 7 of strand 2): 1.4
